Source: publication PMC7472415 (Viruses, 2020)

The substances below were run against B/NP_TAIL mut1-YFP, B/NP_TAIL-YFP with point mutations in the positive charge patch of the NLS (influenza B virus B/Memphis/13/03) (assay: SPR).

Sequence of human importin-α7 without its importin-β binding (IBB) domain (residues 58 to 536) (O60684 58-536): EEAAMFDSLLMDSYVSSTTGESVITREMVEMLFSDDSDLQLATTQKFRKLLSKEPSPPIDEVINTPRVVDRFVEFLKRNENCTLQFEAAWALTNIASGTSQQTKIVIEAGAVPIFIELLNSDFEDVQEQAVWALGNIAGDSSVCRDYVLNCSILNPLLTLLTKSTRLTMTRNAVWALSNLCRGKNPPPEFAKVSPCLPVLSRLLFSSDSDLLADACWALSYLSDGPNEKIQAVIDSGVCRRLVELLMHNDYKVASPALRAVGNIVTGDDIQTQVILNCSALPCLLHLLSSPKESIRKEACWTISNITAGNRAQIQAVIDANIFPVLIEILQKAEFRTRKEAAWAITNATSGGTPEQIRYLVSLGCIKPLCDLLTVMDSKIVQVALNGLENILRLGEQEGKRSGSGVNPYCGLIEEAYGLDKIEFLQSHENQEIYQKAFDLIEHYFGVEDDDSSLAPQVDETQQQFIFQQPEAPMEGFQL
Sequence of human importin-α3 without its importin-β binding (IBB) domain (residues 64 to 521) (O00629 64-521): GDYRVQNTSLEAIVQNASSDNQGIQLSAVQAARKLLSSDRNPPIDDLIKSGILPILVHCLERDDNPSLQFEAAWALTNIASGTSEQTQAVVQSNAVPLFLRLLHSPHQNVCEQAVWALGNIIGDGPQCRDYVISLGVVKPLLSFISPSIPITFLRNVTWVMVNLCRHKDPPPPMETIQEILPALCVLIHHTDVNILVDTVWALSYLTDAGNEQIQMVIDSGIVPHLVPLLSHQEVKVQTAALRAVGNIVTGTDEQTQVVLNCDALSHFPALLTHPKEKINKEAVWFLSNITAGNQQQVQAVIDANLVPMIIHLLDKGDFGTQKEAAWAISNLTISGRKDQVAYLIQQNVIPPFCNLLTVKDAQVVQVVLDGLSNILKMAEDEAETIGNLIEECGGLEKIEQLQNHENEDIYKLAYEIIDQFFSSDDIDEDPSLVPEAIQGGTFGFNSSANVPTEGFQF
Sequence of human importin-α5 without its importin-β binding (IBB) domain (residues 66 to 538) (P52294 66-538): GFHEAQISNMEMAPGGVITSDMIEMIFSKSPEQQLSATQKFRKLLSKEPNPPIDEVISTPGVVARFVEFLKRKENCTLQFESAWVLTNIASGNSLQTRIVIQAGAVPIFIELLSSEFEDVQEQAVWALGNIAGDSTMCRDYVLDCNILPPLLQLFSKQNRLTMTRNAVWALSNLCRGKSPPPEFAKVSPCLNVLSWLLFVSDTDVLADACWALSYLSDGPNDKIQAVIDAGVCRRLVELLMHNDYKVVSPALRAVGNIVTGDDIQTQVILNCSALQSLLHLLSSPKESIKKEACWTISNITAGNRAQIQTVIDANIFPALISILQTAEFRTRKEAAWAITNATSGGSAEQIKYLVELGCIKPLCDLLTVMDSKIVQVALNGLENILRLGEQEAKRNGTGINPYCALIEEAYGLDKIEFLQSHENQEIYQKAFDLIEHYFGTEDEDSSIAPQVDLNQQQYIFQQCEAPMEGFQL

Substance	Kd [µM]
human importin-α3 without its importin-β binding (IBB) domain (residues 64 to 521) (from UniProt O00629 64-521) (domain or fragment)	> 5
human importin-α7 without its importin-β binding (IBB) domain (residues 58 to 536) (from UniProt O60684 58-536) (domain or fragment)	> 5
human importin-α5 without its importin-β binding (IBB) domain (residues 66 to 538) (from UniProt P52294 66-538) (domain or fragment)	> 5
